Data published in patent US6111089, “Trophinin, trophinin-assisting proteins and methods to inhibit implantation” (The Burnham Institute, dated 2000).

B1: biotinylated GST-N-terminal trophinin (other)
chain: {GST}-MDIDCLTREELGDDSQAWSRFSFEIEARAQENADASTNVNFSRGASTRAGFSDRASISFNGAPSSS
modifications: also: labeled with biotin succinamide (site not given here)
B2: human trophinin (other)
chain: MDIDCLTREELGDDSQAWSRFSFEIEARAQENADASTNVNFSRGASTRAGFSDRASISFNGAPSSSGGFSGGPGITFGVAPSTSASFSNTASISFGGTLSTSSSFSSAASISFGCAHSTSTSFSSEASISFGGMPCTSASFSGGVSSSFSGPLSTSATFSGGASSGFGGTLSTTAGFSGVLSTSTSFGSAPTTSTVFSSALSTSTGFGGILSTSVCFGGSPSSSGSFGGTLSTSICFGGSPCTSTGFGGTLSTSVSFGGSSSTSANFGGTLSTSICFDGSPSTGAGFGGALNTSASFGSVLNTSTGFGGAMSTSADFGGTLSTSVCFGGSPGTSVSFGSALNTNAGYGGAVSTNTDFGGTLSTSVCFGGSPSTSAGFGGALNTNASFGCAVSTSASFSGAVSTSACFSGAPITNPGFGGAFSTSAGFGGALSTAADFGGTPSNSIGFGAAPSTSVSFGGAHGTSLCFGGAPSTSLCFGSASNTNLCFGGPPSTSACFSGATSPSFCDGPSTSTGFSFGNGLSTNAGFGGGLNTSAGFGGGLGTSAGFSGGLSTSSGFDGGLGTSAGFGGGPGTSTGFGGGLGTSAGFSGGLGTSAGFGGGLVTSDGFGGGLGTNASFGSTLGTSAGFSGGLSTSDGFGSRPNASFDRGLSTIIGFGSGSNTSTGFTGEPSTSTGFSSGPSSIVGFSGGPSTGVGFCSGPSTSGFSGGPSTGAGFGGGPNTGAGFGGGPSTSAGFGSGAASLGACGFSYG

Experiments:
human trophinin = molecular target: B2; test: staining of unpermeabilized HT-H, SNG-M and trophinin/tastin-transfected COS-1 cells, avidin-FITC
Description: (§1) To identify hydrophilic extracellular domains of human trophinin that mediate cell adhesion, individual domains were expressed and evaluated for specific binding to trophinin expressing cells. The trophinin extracellular domain fusion proteins GST551, GST552 and GST553, the GST-N-terminal trophinin domain (residue 1 to 66) and GST were labeled with biotin succinamide (Sigma). SNG-M, HT-H and COS-1 cells transfected with a mixture of human trophinin and tastin cDNA were grown on coverslips and processed for cell staining with the biotinylated proteins essentially as was described for the antibodies to the external domains of trophinin, except that avidin-FITC (Cappel) was used in place of a FITC-secondary antibody.

biotinylated GST = biotinylated GST (Schistosoma japonicum (Blood fluke), UniProt P08515 = GST, labeled with biotin succinamide); test: as above
Description: as §1

Binder | binding result (human trophinin) | binding result (biotinylated GST)
B1 | no binding | –
B2 | – | no binding
